Data published in patent US20250339493A1, “METHODS OF USING NEUREGULIN-4 COMPOUNDS” (priority 2022, published 2025).

Legend:
[1] = Single-ascending dose study in healthy participants: plasma pharmacokinetics after single SC or IV dose; set-up: species or system human; details: in vivo
Text: A multiple-center, investigator- and participant-blind, randomized, placebo-controlled, single-ascending dose study is designed to evaluate the safety and tolerability of a single subcutaneous (SC) dose or an intravenous (IV) dose of the NRG4 compound of SEQ ID NO:1 in healthy participants. Cohorts 1-5 are intended to receive a single SC dose of the NRG4 compound or placebo. Cohort 6 is used to assess a single IV injection of the NRG4 compound. This cohort is to enable an estimation of absolute bioavailability of the NRG4 compound. Doses for the cohorts are as follows: • Cohort 1:1 mg (6 participants NRG4 compound; 2 participants placebo)· • Cohort 2:3 mg (6 participants NRG4 compound; 2 participants placebo). • Cohort 3:10 mg (6 participants NRG4 compound; 2 participants placebo). • Cohort 4:30 mg (6 participants NRG4 compound; 2 participants placebo). • Cohort 5:60 mg (6 participants NRG4 compound; 2 participants placebo). • Cohort 6 (8 participants 3 mg NRG4 compound IV) 48 participants received a dose of NRG4 compound or placebo, with eight males, and 40 females. The age range of the participants was 25 to 65 years. A stable dose of antihypertensive medication, with the exception of beta blockers, and lipid lowering medication were allowed. The study intervention was administered either via a single SC injection into the lower abdominal region or as an IV bolus from a syringe to an indwelling venous catheter. Study interventions administered are summarized in Table 2: On Day 1, participants receive a single dose of their assigned treatment (either NRG4 compound or placebo) for first 5 cohorts and NRG4 compound for the final IV cohort. PK sampling and safety assessments, including AEs, medical assessments, clinical laboratory tests, vital signs, and ECGs, were performed at predefined times through discharge from the CRU on Day 4. Dose escalated cohorts were only initiated after satisfactory review of the safety results from all participants receiving NRG4 compound in the preceding cohort through Day 4. Participants returned to the CRU for outpatient visits on Days 7 and 15 for PK, safety, and immunogenicity assessments, as appropriate. Follow-up visit for PK, safety, and immunogenicity monitoring occurred on Day 29. At the visits and times specified in the protocol venous blood samples of approximately 3 mL each were collected to determine the plasma concentrations of NRG4 compound. PK parameter estimates for NRG4 compound were calculated by standard noncompartmental methods of analysis using Phoenix WinNonlin Version 8.1. […] The PK parameters were summarized and listed separately for SC and IV-dosed cohorts. The plasma concentrations of the NRG4 compound were plotted and summarized. The dose proportionality for SC doses of NRG4 compound were assessed for the log-transformed Cmax, AUC (0-∞), and AUC (0-tlast) using a power model (where log-dose acted as an explanatory variable) to estimate ratios of dose normalized geometric means and corresponding 90% CIs. The estimated ratio of dose-normalized geometric means of PK parameters between the highest and lowest doses were used to assess dose proportionality.

[2] = Single-ascending dose study in healthy participants: safety and tolerability; type: in vivo
Text: A multiple-center, investigator- and participant-blind, randomized, placebo-controlled, single-ascending dose study is designed to evaluate the safety and tolerability of a single subcutaneous (SC) dose or an intravenous (IV) dose of the NRG4 compound of SEQ ID NO:1 in healthy participants. Cohorts 1-5 are intended to receive a single SC dose of the NRG4 compound or placebo. Cohort 6 is used to assess a single IV injection of the NRG4 compound. This cohort is to enable an estimation of absolute bioavailability of the NRG4 compound. Doses for the cohorts are as follows: • Cohort 1:1 mg (6 participants NRG4 compound; 2 participants placebo)· • Cohort 2:3 mg (6 participants NRG4 compound; 2 participants placebo). • Cohort 3:10 mg (6 participants NRG4 compound; 2 participants placebo). • Cohort 4:30 mg (6 participants NRG4 compound; 2 participants placebo). • Cohort 5:60 mg (6 participants NRG4 compound; 2 participants placebo). • Cohort 6 (8 participants 3 mg NRG4 compound IV)
48 participants received a dose of NRG4 compound or placebo, with eight males, and 40 females. The age range of the participants was 25 to 65 years. A stable dose of antihypertensive medication, with the exception of beta blockers, and lipid lowering medication were allowed. […]

[3] = Rat continuous SC infusion toxicology study; type: in vivo
Experimental: (§1) Table 3 presents the estimated margins of safety of 21 mg/day infused for 24 hours and 140 mg/day infused for 96 hours doses of NRG4 compound. The anticipated therapeutic benefit for patients with HFrEF outweighs any potential risks identified in the nonclinical safety profile.

[4] = Cynomolgus continuous SC infusion toxicology study; type: in vivo, cynomolgus monkey
Experimental: as §1

[5] = rat non-repro NOAEL (F), 16.1 mg/kg/day, 96 h SC infusion
[6] = rat, in vivo, sc, 1.6 mg/kg/day
[7] = cynomolgus monkey, in vivo, sc, 156 mg/kg/day
[8] = monkey NOAEL (M + F), 12.6 mg/kg/day, 96 h SC infusion

## NRG4 compound: NRG4 compound comprising amino acid sequence SEQ ID NO:1: GGGGSGHEEPCGPSHKSFCLNGGLCYQIPTIPSPFCRCVENYTGARCEKVEL; selective HER4 binding (GGGGSGHEEPCGPSHKSFCLNGGLCYQIPTIPSPFCRCVENYTGARCEKVFL)
[1]
  geometric mean F (absolute bioavailability): 104%
[1]; iv
  geometric mean CL: 6.01 L/h
  geometric mean Vss: 13.6 L
  geometric mean Vz: 22.0 L
  geometric mean t1/2: 2.53 h
[1]; sc
  dose proportionality of AUC (0-0): slightly higher than proportional
  dose proportionality of Cmax: slightly less than proportional
  dose proportionality of PK: increase approximately proportionally
  geometric mean CL/F: 4.88 to 6.05 L/h
  geometric mean Vz/F: 19.2 to 24.3 L
  geometric mean t1/2: 2.45 h
  mean CL/F: 4.9 to 6.05 L/h
  mean half-life: 2.20 to 3.21 h
  median tmax: 2.0 h
  tmax range: 1.00 to 4.08 h
  t½: 2.5 to 3 h
[2]; in vivo
  overall safety and tolerability: safe and well-tolerated
[2]; single SC 1 to 60 mg or IV 3 mg, healthy participants
  deaths, serious adverse events, discontinuations due to adverse events: no deaths, serious adverse events (SAEs) or discontinuations due to adverse events were reported
[3]; [5]
  AUC0-t: 53.3 µg·h/mL
  Cave, ss: 540 ng/mL
[3]; rat, female, continuous SC infusion 96 h
  Non-repro NOAEL (F) dose: 16.1 mg/kg/day
[3]; [6]
  AUC0-t: 7.17 µg·h/mL
  Cave, ss: 72 ng/mL
[3]; rat, male, continuous SC infusion 96 h
  LOAEL (M) dose: 1.6 mg/kg/day
[4]; cynomolgus monkey, in vivo
  Cave, ss Multiple, Max Dose: 16.9
  Cave, ss Multiple, Start Dose: 109
[4]; [7]
  AUC0-t: 1840 µg·h/mL
  Cave, ss: 18600 ng/mL
[4]; [8]
  AUC0-t: 148 µg·h/mL
  Cave, ss: 1490 ng/mL
[4]; monkey, continuous SC infusion 96 h
  NOAEL (M + F) dose: 12.6 mg/kg/day
